Experimental data as given in article PMC12029569, “Exploring the G-Quadruplex Formation of AS1411 Derivatives”.

Legend:
Conditions in all cases: label: 5'-Cy5; G-quadruplex
NCL RBD1,2 [1] = target: T1, NCL RBD1,2 (UniProt P19338 307-466); assay: fluorescence titration; Hill n 0.31; SD exceeds Kd; K100: 100 mM KCl, 10 mM lithium cacodylate pH 7.2; 100 nM Cy5-oligonucleotide pre-annealed, 5 min equilibration per protein addition; temperature not stated
NCL RBD2,3 [2] = target: T2, NCL RBD2,3 (UniProt P19338 393-560); assay: fluorescence titration; no measurable interaction; Hill fit not possible; up to 50 nM protein; K100: 100 mM KCl, 10 mM lithium cacodylate pH 7.2; 100 nM Cy5-oligonucleotide pre-annealed, 5 min equilibration per protein addition; temperature not stated
T2 sequence (P19338 393-560): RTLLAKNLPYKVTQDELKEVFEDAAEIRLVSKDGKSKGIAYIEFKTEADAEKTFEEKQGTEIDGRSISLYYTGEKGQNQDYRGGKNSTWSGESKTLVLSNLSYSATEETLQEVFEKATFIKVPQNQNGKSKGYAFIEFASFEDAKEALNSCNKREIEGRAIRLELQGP

NCL RBD1,2 [3] = target: T1, NCL RBD1,2; assay: fluorescence titration; Hill n 0.37; main text prints 4.6 nM (conflict with Table S4); K100: 100 mM KCl, 10 mM lithium cacodylate pH 7.2; 100 nM Cy5-oligonucleotide pre-annealed, 5 min equilibration per protein addition; temperature not stated
NCL RBD2,3 [4] = target: T2, NCL RBD2,3; assay: fluorescence titration; Hill n 0.54; K100: 100 mM KCl, 10 mM lithium cacodylate pH 7.2; 100 nM Cy5-oligonucleotide pre-annealed, 5 min equilibration per protein addition; temperature not stated
NCL RBD1,2 [5] = target: T1, NCL RBD1,2; assay: fluorescence titration; Hill n 1.89; K100: 100 mM KCl, 10 mM lithium cacodylate pH 7.2; 100 nM Cy5-oligonucleotide pre-annealed, 5 min equilibration per protein addition; temperature not stated
NCL RBD1,2 [6] = target: T1, NCL RBD1,2; assay: fluorescence titration; Hill n 0.24; K100: 100 mM KCl, 10 mM lithium cacodylate pH 7.2; 100 nM Cy5-oligonucleotide pre-annealed, 5 min equilibration per protein addition; temperature not stated
NCL RBD2,3 [7] = target: T2, NCL RBD2,3; assay: fluorescence titration; Hill n 2.08; K100: 100 mM KCl, 10 mM lithium cacodylate pH 7.2; 100 nM Cy5-oligonucleotide pre-annealed, 5 min equilibration per protein addition; temperature not stated
NCL RBD1,2 [8] = target: T1, NCL RBD1,2; assay: fluorescence titration; Hill n 0.20; SD exceeds Kd; K100: 100 mM KCl, 10 mM lithium cacodylate pH 7.2; 100 nM Cy5-oligonucleotide pre-annealed, 5 min equilibration per protein addition; temperature not stated
NCL RBD1,2 [9] = target: T1, NCL RBD1,2; assay: fluorescence titration; Hill n 0.33; K100: 100 mM KCl, 10 mM lithium cacodylate pH 7.2; 100 nM Cy5-oligonucleotide pre-annealed, 5 min equilibration per protein addition; temperature not stated
NCL RBD2,3 [10] = target: T2, NCL RBD2,3; assay: fluorescence titration; Hill n 0.49; SD exceeds Kd; K100: 100 mM KCl, 10 mM lithium cacodylate pH 7.2; 100 nM Cy5-oligonucleotide pre-annealed, 5 min equilibration per protein addition; temperature not stated

T1 sequence (P19338 307-466): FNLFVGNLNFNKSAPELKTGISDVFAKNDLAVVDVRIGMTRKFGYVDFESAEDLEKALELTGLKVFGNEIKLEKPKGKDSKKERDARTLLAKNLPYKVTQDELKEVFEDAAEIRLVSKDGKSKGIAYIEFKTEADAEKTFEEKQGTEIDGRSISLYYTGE

In the case of TGGTGGTGGTGGTTTTGGTGGTGGTGGT (structured_DNA) [Cy5-AT14T], the Kd (NCL RBD1,2 [1]) is reported as 8.34 ± 13.2 nM and the binding result (NCL RBD2,3 [2]) is reported as “no binding”.

With GGTGGTGGTGGTTTTGGTGGTGGTGG (structured_DNA) [Cy5-AT14] the Kd (NCL RBD1,2 [3]) was 0.46 ± 0.12 nM and the Kd (NCL RBD2,3 [4]) was 0.08 ± 0.01 nM.

With TGGTGGTGGTGGTTGGTGGTGGTGGT (structured_DNA) [Cy5-AT14T-T2] the binding result (NCL RBD2,3 [2]) was “no binding” and the Kd (NCL RBD1,2 [5]) was 1.48 ± 0.2 nM.

Work on TGGTGGTGGTGGTTTGGTGGTGGTGGT (structured_DNA) [Cy5-AT14T-T1] yielded a Kd (NCL RBD1,2 [6]) of 3.39 ± 0.58 nM.

In the case of GGTGGTGGTGGTTTGGTGGTGGTGG (structured_DNA) [Cy5-AT14-T1], the Kd (NCL RBD2,3 [7]) is reported as 2.16 ± 0.37 nM and the Kd (NCL RBD1,2 [8]) is reported as 1.4 nM.

Binder GGTGGTGGTGGTTGGTGGTGGTGG (structured_DNA) [Cy5-AT14-T2] has a Kd (NCL RBD1,2 [9]) of 0.01 ± 0.01 nM and a Kd (NCL RBD2,3 [10]) of 5.37 ± 7.21 nM.
